Data published in article PMC10397247.

Tests used:
Assay in all cases: two-hybrid library CCNG1;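 further: natural log of median RNA to DNA barcode read ratio; higher means stronger binding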
4H2442-bH = target: T1, 4H2442-bH
T1 chain: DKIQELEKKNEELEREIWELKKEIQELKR

4H2576-bH = target: T2, 4H2576-bH
T2 chain: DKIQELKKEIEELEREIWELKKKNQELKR

4H2618-bH = target: T3, 4H2618-bH
T3 chain: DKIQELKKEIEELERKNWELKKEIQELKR

4H2667-bH = target: T4, 4H2667-bH
T4 chain: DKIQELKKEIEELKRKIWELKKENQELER

4H2729-bH = target: T5, 4H2729-bH
T5 chain: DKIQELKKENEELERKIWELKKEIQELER

4H3112-bH = target: T6, 4H3112-bH
T6 chain: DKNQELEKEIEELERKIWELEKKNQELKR

4H3185-bH = target: T7, 4H3185-bH
T7 chain: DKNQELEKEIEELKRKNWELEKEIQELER

4H331-bH = target: T8, 4H331-bH
T8 chain: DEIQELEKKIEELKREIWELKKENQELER

4H3354-bH = target: T9, 4H3354-bH
T9 chain: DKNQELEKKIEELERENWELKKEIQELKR

4H338-bH = target: T10, 4H338-bH
T10 chain: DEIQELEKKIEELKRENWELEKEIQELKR

4H3427-bH = target: T11, 4H3427-bH
T11 chain: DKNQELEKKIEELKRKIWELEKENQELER

4H3782-bH = target: T12, 4H3782-bH
T12 chain: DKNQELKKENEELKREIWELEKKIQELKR

4H3855-bH = target: T13, 4H3855-bH
T13 chain: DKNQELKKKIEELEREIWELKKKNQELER

4H3907-bA = target: T14, 4H3907-bA
T14 chain: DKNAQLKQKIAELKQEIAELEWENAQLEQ

4H4001-bH = target: T15, 4H4001-bH
T15 chain: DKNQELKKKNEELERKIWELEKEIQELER

4H454-bH = target: T16, 4H454-bH
T16 chain: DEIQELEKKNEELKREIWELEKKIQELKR

4H568-bH = target: T17, 4H568-bH
T17 chain: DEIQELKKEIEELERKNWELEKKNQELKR

4H575-bH = target: T18, 4H575-bH; conditions: mean of both orientations
T18 chain: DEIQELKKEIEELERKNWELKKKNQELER

4H687-bH = target: T19, 4H687-bH
T19 chain: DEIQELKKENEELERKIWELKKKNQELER

4H717-bH = target: T20, 4H717-bH
T20 chain: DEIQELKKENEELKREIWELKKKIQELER

4H72-bH = target: T21, 4H72-bH
T21 chain: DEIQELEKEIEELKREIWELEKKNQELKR

4H754-bH = target: T22, 4H754-bH
T22 chain: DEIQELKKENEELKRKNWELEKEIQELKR

4H797-bH = target: T23, 4H797-bH
T23 chain: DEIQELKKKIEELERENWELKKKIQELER

4H883-bA = target: T24, 4H883-bA
T24 chain: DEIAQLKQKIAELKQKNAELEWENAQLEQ

4H883-bH = target: T25, 4H883-bH
T25 chain: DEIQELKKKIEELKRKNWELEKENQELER

4H908-bH = target: T26, 4H908-bH
T26 chain: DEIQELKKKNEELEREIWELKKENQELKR

4H918-bH = target: T27, 4H918-bH
T27 chain: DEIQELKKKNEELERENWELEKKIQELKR

4H953-bH = target: T28, 4H953-bH
T28 chain: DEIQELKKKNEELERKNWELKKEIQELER

4H967-bH = target: T29, 4H967-bH
T29 chain: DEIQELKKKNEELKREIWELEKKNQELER

B1: 4H2442-bH (peptide)
chain: DKIQELEKKNEELEREIWELKKEIQELKR
interaction score (4H2442-bH): 1.25
interaction score (4H2576-bH): 0.27
interaction score (4H2618-bH): 1.93
interaction score (4H2667-bH): -0.37
interaction score (4H2729-bH): 1.77
interaction score (4H3112-bH): -0.123
interaction score (4H3185-bH): -0.571
interaction score (4H331-bH): -0.168
interaction score (4H3354-bH): 0.0703
interaction score (4H338-bH): 0.526
interaction score (4H3427-bH): -0.00664
interaction score (4H3782-bH): -0.566
interaction score (4H3855-bH): -1.1
interaction score (4H3907-bA): -1.28
interaction score (4H4001-bH): -0.244
interaction score (4H454-bH): 1.64
interaction score (4H568-bH): -0.0562
interaction score (4H575-bH): 0.167
interaction score (4H687-bH): -0.163
interaction score (4H717-bH): 0.313
interaction score (4H72-bH): -2.01
interaction score (4H754-bH): -0.751
interaction score (4H797-bH): -0.629
interaction score (4H883-bA): -2.1
interaction score (4H883-bH): 0.442
interaction score (4H908-bH): -0.628
interaction score (4H918-bH): -0.517
interaction score (4H953-bH): 0.587
interaction score (4H967-bH): 0.424
